Biological target: GAL-4 binding domain vector alone (pPC97) (yeast, UniProt P04386)
Test: yeast two-hybrid filter assay
Description: A cDNA encoding the first 230 amino acids of huntingtin containing 44 glutamine repeats was ligated to the GAL-4 binding domain in plasmid vector pPC97 for yeast two hybrid screening with a rat brain cDNA library.
A cDNA construct containing the first 230 amino acids with 44 or 23 glutamine repeats was in-frame fused with the GAL4 DNA binding domain of plasmid pPC97[27].

binding result: no binding
B1: rHAP1-BR (rat huntingtin Associated Protein1 Binding Region), GAL-4 activation domain construct (other)
chain: LLEEENDHLREEASHLDNLEDKEQMLILECVEQFSEASQQMAELSEVLVLRLEGYERQQKEITQLQAEITKLQQRCQSYGAQTEKLQQQLASEKGVHPESLRAGSHMQDYGSRPRERQEDGKSHRQRSSMPAGSVTHYGYSVPLDALPSFPETLAEELRTSLRKFITDP
